Source: IntAct's records for PubMed 31515488

B1: Peroxisomal bifunctional enzyme (Homo sapiens), Q08426 (parent)
chain: MAEYTRLHNALALIRLRNPPVNAISTTLLRDIKEGLQKAVIDHTIKAIVICGAEGKFSAGADIRGFSAPRTFGLTLGHVVDEIQRNEKPVVAAIQGMAFGGGLELALGCHYRIAHAEAQVGLPEVTLGLLPGARGTQLLPRLTGVPAALDLITSGRRILADEALKLGILDKVVNSDPVEEAIRFAQRVSDQPLESRRLCNKPIQSLPNMDSIFSEALLKMRRQHPGCLAQEACVRAVQAAVQYPYEVGIKKEEELFLYLLQSGQARALQYAFFAERKANKWSTPSGASWKTASARPVSSVGVVGLGTMGRGIVISFARARIPVIAVDSDKNQLATANKMITSVLEKEASKMQQSGHPWSGPKPRLTSSVKELGGVDLVIEAVFEEMSLKKQVFAELSAVCKPEAFLCTNTSALDVDEIASSTDRPHLVIGTHFFSPAHVMKLLEVIPSQYSSPTTIATVMNLSKKIKKIGVVVGNCFGFVGNRMLNPYYNQAYFLLEEGSKPEEVDQVLEEFGFKMGPFRVSDLAGLDVGWKSRKGQGLTGPTLLPGTPARKRGNRRYCPIPDVLCELGRFGQKTGKGWYQYDKPLGRIHKPDPWLSKFLSRYRKTHHIEPRTISQDEILERCLYSLINEAFRILGEGIAASPEHIDVVYLHGYGWPRHKGGPMFYASTVGLPTVLEKLQKYYRQNPDIPQLEPSDYLKKLASQGNPPLKEWQSLAGSPSSKL
partner: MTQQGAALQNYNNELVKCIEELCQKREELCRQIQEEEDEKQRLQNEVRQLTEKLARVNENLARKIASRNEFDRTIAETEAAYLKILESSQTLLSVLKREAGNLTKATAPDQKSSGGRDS
B2: Transcription factor 12 (Homo sapiens), Q99081 (parent)
chain: MNPQQQRMAAIGTDKELSDLLDFSAMFSPPVNSGKTRPTTLGSSQFSGSGIDERGGTTSWGTSGQPSPSYDSSRGFTDSPHYSDHLNDSRLGAHEGLSPTPFMNSNLMGKTSERGSFSLYSRDTGLPGCQSSLLRQDLGLGSPAQLSSSGKPGTAYYSFSATSSRRRPLHDSAALDPLQAKKVRKVPPGLPSSVYAPSPNSDDFNRESPSYPSPKPPTSMFASTFFMQDGTHNSSDLWSSSNGMSQPGFGGILGTSTSHMSQSSSYGNLHSHDRLSYPPHSVSPTDINTSLPPMSSFHRGSTSSSPYVAASHTPPINGSDSILGTRGNAAGSSQTGDALGKALASIYSPDHTSSSFPSNPSTPVGSPSPLTGTSQWPRPGGQAPSSPSYENSLHSLQSRMEDRLDRLDDAIHVLRNHAVGPSTSLPAGHSDIHSLLGPSHNAPIGSLNSNYGGSSLVASSRSASMVGTHREDSVSLNGNHSVLSSTVTTSSTDLNHKTQENYRGGLQSQSGTVVTTEIKTENKEKDENLHEPPSSDDMKSDDESSQKDIKVSSRGRTSSTNEDEDLNPEQKIEREKERRMANNARERLRVRDINEAFKELGRMCQLHLKSEKPQTKLLILHQAVAVILSLEQQVRERNLNPKAACLKRREEEKVSAVSAEPPTTLPGTHPGLSETTNPMGHM
partner: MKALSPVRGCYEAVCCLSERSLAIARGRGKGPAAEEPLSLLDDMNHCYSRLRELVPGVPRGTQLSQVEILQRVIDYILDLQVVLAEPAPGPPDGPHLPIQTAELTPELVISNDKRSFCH
B3: Zinc finger protein Aiolos (Homo sapiens), Q9UKT9 (parent)
chain: MEDIQTNAELKSTQEQSVPAESAAVLNDYSLTKSHEMENVDSGEGPANEDEDIGDDSMKVKDEYSERDENVLKSEPMGNAEEPEIPYSYSREYNEYENIKLERHVVSFDSSRPTSGKMNCDVCGLSCISFNVLMVHKRSHTGERPFQCNQCGASFTQKGNLLRHIKLHTGEKPFKCHLCNYACQRRDALTGHLRTHSVEKPYKCEFCGRSYKQRSSLEEHKERCRTFLQSTDPGDTASAEARHIKAEMGSERALVLDRLASNVAKRKSSMPQKFIGEKRHCFDVNYNSSYMYEKESELIQTRMMDQAINNAISYLGAEALRPLVQTPPAPTSEMVPVISSMYPIALTRAEMSNGAPQELEKKSIHLPEKSVPSERGLSPNNSGHDSTDTDSNHEERQNHIYQQNHMVLSRARNGMPLLKEVPRSYELLKPPPICPRDSVKVINKEGEVMDVYRCDHCRVLFLDYVMFTIHMGCHGFRDPFECNMCGYRSHDRYEFSSHIARGEHRALLK
partner: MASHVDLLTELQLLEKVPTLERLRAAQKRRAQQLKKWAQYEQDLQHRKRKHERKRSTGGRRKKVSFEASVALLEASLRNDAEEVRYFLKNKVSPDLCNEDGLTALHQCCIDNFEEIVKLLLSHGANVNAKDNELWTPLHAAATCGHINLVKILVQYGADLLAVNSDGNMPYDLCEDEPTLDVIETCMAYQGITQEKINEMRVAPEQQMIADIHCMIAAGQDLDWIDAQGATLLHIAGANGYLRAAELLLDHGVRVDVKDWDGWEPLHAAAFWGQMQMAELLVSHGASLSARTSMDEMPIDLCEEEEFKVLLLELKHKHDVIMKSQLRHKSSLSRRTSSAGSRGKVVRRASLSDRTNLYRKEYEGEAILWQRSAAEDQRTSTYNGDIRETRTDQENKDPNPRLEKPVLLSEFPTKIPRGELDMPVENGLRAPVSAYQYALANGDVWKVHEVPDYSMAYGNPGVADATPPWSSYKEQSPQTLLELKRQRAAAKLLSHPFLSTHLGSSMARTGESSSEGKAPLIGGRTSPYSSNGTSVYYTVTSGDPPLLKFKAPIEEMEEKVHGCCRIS
B4: Serine/threonine-protein kinase PAK 5 (Homo sapiens), Q9P286 (parent)
chain: MFGKKKKKIEISGPSNFEHRVHTGFDPQEQKFTGLPQQWHSLLADTANRPKPMVDPSCITPIQLAPMKTIVRGNKPCKETSINGLLEDFDNISVTRSNSLRKESPPTPDQGASSHGPGHAEENGFITFSQYSSESDTTADYTTEKYREKSLYGDDLDPYYRGSHAAKQNGHVMKMKHGEAYYSEVKPLKSDFARFSADYHSHLDSLSKPSEYSDLKWEYQRASSSSPLDYSFQFTPSRTAGTSGCSKESLAYSESEWGPSLDDYDRRPKSSYLNQTSPQPTMRQRSRSGSGLQEPMMPFGASAFKTHPQGHSYNSYTYPRLSEPTMCIPKVDYDRAQMVLSPPLSGSDTYPRGPAKLPQSQSKSGYSSSSHQYPSGYHKATLYHHPSLQSSSQYISTASYLSSLSLSSSTYPPPSWGSSSDQQPSRVSHEQFRAALQLVVSPGDPREYLANFIKIGEGSTGIVCIATEKHTGKQVAVKKMDLRKQQRRELLFNEVVIMRDYHHDNVVDMYSSYLVGDELWVVMEFLEGGALTDIVTHTRMNEEQIATVCLSVLRALSYLHNQGVIHRDIKSDSILLTSDGRIKLSDFGFCAQVSKEVPKRKSLVGTPYWMAPEVISRLPYGTEVDIWSLGIMVIEMIDGEPPYFNEPPLQAMRRIRDSLPPRVKDLHKVSSVLRGFLDLMLVREPSQRATAQELLGHPFLKLAGPPSCIVPLMRQYRHH

Variants of: B1
Conditions: with ssna1_human SSNA1, O43805

Row | Variant | effect of a mutation on the interaction
1 | R556G | with no effect

Variants of: B2
Conditions: with id3_human ID3, Q02535

Row | Variant | effect of a mutation on the interaction
2 | I11M | with no effect
3 | N479S | with no effect
4 | G300S | with no effect
5 | A458V | with no effect
6 | L483R | with no effect
7 | D565V | with no effect

Variants of: B3
Conditions: with pp16b_human PPP1R16B

Row | Variant | effect of a mutation on the interaction
8 | A24V | with no effect
9 | N119D | with no effect

Variants of: B4
Conditions: with uxt_human UXT

Row | Variant | effect of a mutation on the interaction
10 | R335P | with no effect

Variants of: B4
Conditions: with crbn_human CRBN

Row | Variant | effect of a mutation on the interaction
11 | R335P | with no effect

Variants of: B4
Conditions: with gcp4_human TUBGCP4, Q9UGJ1
Sequence of gcp4_human TUBGCP4, Q9UGJ1 (Q9UGJ1 whole entry): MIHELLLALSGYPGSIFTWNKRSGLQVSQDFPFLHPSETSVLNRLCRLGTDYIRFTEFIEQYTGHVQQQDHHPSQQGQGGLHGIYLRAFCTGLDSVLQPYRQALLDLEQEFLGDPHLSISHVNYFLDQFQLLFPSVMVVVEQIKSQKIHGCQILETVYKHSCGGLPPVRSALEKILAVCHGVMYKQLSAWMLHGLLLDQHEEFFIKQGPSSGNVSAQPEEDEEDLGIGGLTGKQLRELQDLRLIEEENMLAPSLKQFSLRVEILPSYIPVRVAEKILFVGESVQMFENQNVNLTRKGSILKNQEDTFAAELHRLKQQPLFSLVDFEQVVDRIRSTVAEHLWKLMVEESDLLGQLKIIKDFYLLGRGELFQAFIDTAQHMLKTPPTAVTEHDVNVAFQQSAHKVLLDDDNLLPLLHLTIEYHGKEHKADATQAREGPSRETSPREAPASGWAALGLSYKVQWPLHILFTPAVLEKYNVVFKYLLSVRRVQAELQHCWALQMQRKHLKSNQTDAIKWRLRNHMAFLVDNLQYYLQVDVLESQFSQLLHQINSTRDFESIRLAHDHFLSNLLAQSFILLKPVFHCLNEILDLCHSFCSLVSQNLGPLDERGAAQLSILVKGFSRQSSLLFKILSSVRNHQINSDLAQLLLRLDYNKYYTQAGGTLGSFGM

Row | Variant | effect of a mutation on the interaction
12 | R335P | with no effect
